What was measured:
Test in all cases: SPR; Biacore T200; recombinant human TNFα immobilized on a CM5 chip, antibody captured through binding to TNFα; association and dissociation globally fit to a 1:1 binding model; average of 3 intra-assay replicates per lot
ABP 710 = target: ABP 710
infliximab (EU) = target: infliximab (EU)
infliximab (US) = target: infliximab (US)

Kd (ABP 710)	Kd (infliximab (EU))	Kd (infliximab (US))	Substance
68 to 80 nM			FcγRIIIa (158V)
	59 to 89 nM	63 to 93 nM	FcγRIIIa (158V) (receptor)
